Reference: patent US7193055B2, “Compaction assay for assessment of respiratory disease therapy” (Genentech, Inc., priority 1992, dated 2007)
“Also recorded” adds a separate entry of the source.

Legend:
[1] = 1 and 4 mg/mL rhDNase solutions, aerosolized (Aitken et al., Hubbard et al.); cited from earlier work
[2] = tested on: purulent CF sputum; experiment: Compaction assay of CF sputum treated in vitro with rhDNase; assay type: biochemical, human
Protocol: Approximately 100 μL of sputum was transferred into a tared Eppendorf microcentrifuge tube with a positive displacement pipet (Gilson Microman®, equipped with a stainless steel shaft and plastic plunger). Either rhDNase or control diluent was added as volume equaling 50% of the exact sputum sample weight. Eppendorf tubes were vigorously vortexed for 15 seconds and then incubated for 15 minutes at ambient temperature. Aliquants of the treated sputum were loaded into Kimax-51, 1.5−1.8×90 mm melting point capillary tubes (Kimble Products) using 50 μL Drummond glass capillary tube (Microcaps). The loaded tubes were centrifuged for 20 minutes at 12,000 rpm in a Biofuge A microcentrifuge (Heraeus Sepatech GmbH) equipped with a horizontal, hematocrit-type rotor head (Heraeus Sepatech) and the supernatant/pellet interface subsequently inspected for resolution. On occasion some samples required up to 20 additional minutes to resolve the supernatant-pellet interface clearly. In these cases, all samples loaded on the rotor were centrifuged for the greater duration. The total height of the material loaded into the capillary tubes and the pellet height were measured in millimeters. The percent pellet was calculated as the height of the pellet divided by the height of the total material loaded, multiplied by 100.

[3] = tested on: DNA in sputum samples; experiment: Agarose gel electrophoresis of DNA length in sputum samples; assay type: biochemical, human; parameters: dose or concentration left out as unconfirmed; conditions: all six sputum samples; rhDNase, 20 minutes at 25° C.
Protocol: The length of the DNA in sputum samples was determined qualitatively by agarose gel electrophoresis as described by Shak et al., Supra. The effect of freezing on sputum DNA length was studied by electrophoresing samples with and without one cycle of freezing at −70° C. Samples were diluted four-fold in a buffer containing 100 mM NaCl, 5 mM EDTA, 0.5% SDS, 100 μg/ml proteinase K (Sigma), 50 mM Tris, pH 8.0, and incubated for three hours at 37° C. with occasional mixing. Samples were then electrophoresed in 0.5% agarose gels and stained with ethidium bromide by standard procedures (Sambrook, et al., Molecular Cloning: A Laboratory Manual, 2nd ed. Cold Spring Harbor Laboratory Press [1989]). A 1 Kb DNA ladder having 12 major bands between 500 bp to 12 Kb (Gibco/BRL 5615SA) was used as the molecular weight standard.

[4] = rhDNase concentration in sputum after inhalation; assay type: in vivo, human; conditions: inhalation of 10 mg rhDNase; sputum collected one hour after inhalation
[5] = tested on: DNA in sputum samples; experiment: Total DNA in pellet and supernatant fractions after compaction (DABA assay); assay type: biochemical, human; conditions: all six samples, FIG. 6
Protocol: Sputum sample DNA content was determined by a modification of the diaminobenzoic acid (DABA) assay developed by Kissane and Robins (J Biol Chem 233: 184–188 (1958]) which quantitates total DNA concentration independent of length. Previously frozen sputum aliquants were diluted tenfold with the assay diluent (25 mM HEPES, 1 mg/ml bovine serum albumin, 4 mM CaCl^2, 4 mM MgCl^2, 0.05% polysorbate 20, and 0.01% thimerasol, at pH 7.5) and incubated at 60° C. for one hour. Diluted specimens (50 μL) were pipeted into microtiter plate wells and 50 μL of a 20% 3,5-diaminobenzoic acid hydrochloride (DABA) solution was added after which the plates were tightly sealed. […] A Cytofluor (Millipore Corp.) microtiter plate flurometer (with 390 nm excitation and 530 nm emission filters) was used to read the plates. […] The coefficient of variation for the assay was determined to be <6%.
Approximately 100 μL of sputum was transferred into a tared Eppendorf microcentrifuge tube with a positive displacement pipet (Gilson Microman®, equipped with a stainless steel shaft and plastic plunger). […] The total height of the material loaded into the capillary tubes and the pellet height were measured in millimeters. The percent pellet was calculated as the height of the pellet divided by the height of the total material loaded, multiplied by 100.

[6] = tested on: purulent CF sputum; experiment: Dynamic cone and plate rheometry of sputum; parameters: species or system human; conditions: representative sputum sample, over the range of strain tested, FIG. 4
Protocol: Sputum rheological measurements were made at ambient temperature using the Rheometrics Fluid Rheometer (RFR-7800, Rheometrics Inc. Piscataway, N.J.) with a 0.02 radian, 25 mm radius cone and plate tool. Approximately 0.8 ml sputum was placed on the plate with 25 μL of diluent or rhDNase layered onto the top of the sputum. The cone was lowered onto the sample while the bottom plate was slowly rotated at. 5 rpm to evenly distribute the sample across the gap between the cone and plate. Drying at the sample edge was prevented by pipeting 0.1 poise silicon oil (Dow Chemical) onto the exposed edge of the cone. Rotation of the plate was stopped for five minutes to allow the sample to relax. Each preparation was tested at a deformation rate of 10 radians/sec and the percent strain was varied from 10% to 200% in 10% increments. Percent strain is defined as 100 times the distance of the shearing motion divided by the space between the cone and plate of the viscometer. The second strain value, 20% strain, was used for the comparisons between samples and treatments, being the lowest possible strain for accurate measurement. Instrument start-up frequently compromises the first data point and higher strains can damage network structures (Ferry, J Viscoelastic Properties of Polymers. 3rd ed. John Wiley and Sons, Inc. New York pg. 245-[1980]) resulting in artifacts and irreproducible data.

[7] = catalytic amounts of rhDNase (Shak et al.); cited from earlier work

B1: rhDNase: recombinant human DNase I cloned and expressed at Genentech; used as 4 mg/ml solution in 1 mM CaCl2, 150 mM NaCl, pH 7.4 (protein, UniProt P24855 23-282, looked up)
Deoxyribonuclease-1: LKIAAFNIQTFGETKMSNATLVSYIVQILSRYDIALVQEVRDSHLTAVGKLLDNLNQDAPDTYHYVVSEPLGRNSYKERYLFVYRPDQVSAVDSYYYDDGCEPCGNDTFNREPAIVRFFSRFTEVREFAIVPLHAAPGDAVAEIDALYDVYLDVQEKWGLEDVMLMGDFNAGCSYVRPSQWSSIRLWTSPTFQWLIPDSADTTATPTHCAYDRIVVAGMLLRGAVVPDSALPFNFQAAYGLSDQLAQAISDHYPVEVMLK
For B1, the “pulmonary function in CF patients” value [1] is given as “increased pulmonary function; also recorded: improved lung function”, the “concentration above which rhDNase is maximally effective (fit of dose-response curve)” value ([2]; CF sputum sample, FIG. 7) is given as “above 1 μg/ml” and the “concentration below which rhDNase is minimally effective (fit of dose-response curve)” value ([2]; CF sputum sample, FIG. 7) is given as “below 0.1 μg/ml”. The “minimum in vitro rhDNase concentration showing activity in the compaction assay” value ([2]; in vitro, sputum) was 1 μg rhDNase/mL sputum, the “DNA size after hydrolysis (complete hydrolysis)” value [3] was “less than 500 base pairs” and the “concentrations of rhDNase in sputum” value [4] was 1000 to 20000 ng/mL. For the same molecule, the “distribution of total DNA between pellet and supernatant following compaction” value [5] was “redistribution of total DNA from the pellet to the supernatant”, the “effect on elasticity modulus” value [6] was “more greatly affected” and the “effect on viscosity modulus” value [6] was “reduced measured values of viscosity”. For the same molecule, the “viscosity of purulent cystic fibrosis sputum” value [7] was “greatly reduced the viscosity”.
